Measurements: patent US20130177579A1 (BIOALLIANCE C V, published 2013)
Values belong to the substance of their own block, whether it stands above or below them.

Experiments:
[1] = target: human CD41a on platelets (human) (UniProt P08514); test: FACS, platelets, donor D016, positive control
[2] = target: human CD41a on platelets (human) (UniProt P08514); test: FACS, platelets, donor D102, positive control
[3] = target: human CD41a on platelets (human) (UniProt P08514); test: FACS, platelets, donor D014, positive control
[4] = target: human CD41a on platelets (human) (UniProt P08514); test: FACS, platelets, donor D005, positive control
[5] = target: human transferrin receptor expressed by normal human cells (RBC, PMN, lymphocytes, monocytes, platelets, HUVEC) (human) (UniProt P02786); test: FACS, RBC, donor D005
[6] = target: human transferrin receptor expressed by nonhematopoietic cancer cells (human) (UniProt P02786); test: FACS, SNU-16 cells, 5 ug
[7] = target: human transferrin receptor expressed by nonhematopoietic cancer cells (human) (UniProt P02786); test: FACS, NCI-N87 cells, 5 ug
[8] = target: human transferrin receptor expressed by normal human cells (RBC, PMN, lymphocytes, monocytes, platelets, HUVEC) (human) (UniProt P02786); test: FACS, monocytes, donor D016
[9] = target: human transferrin receptor expressed by normal human cells (RBC, PMN, lymphocytes, monocytes, platelets, HUVEC) (human) (UniProt P02786); test: FACS, lymphocytes, donor D102
[10] = target: human transferrin receptor expressed by nonhematopoietic cancer cells (human) (UniProt P02786); test: FACS, DLD-1 cells, 5 ug
[11] = target: human transferrin receptor expressed by nonhematopoietic cancer cells (human) (UniProt P02786); test: FACS, DU145 cells, 5 ug
[12] = target: human transferrin receptor expressed by normal human cells (RBC, PMN, lymphocytes, monocytes, platelets, HUVEC) (human) (UniProt P02786); test: FACS, platelets, donor D016
[13] = target: human transferrin receptor expressed by normal human cells (RBC, PMN, lymphocytes, monocytes, platelets, HUVEC) (human) (UniProt P02786); test: FACS, HUVEC, 5 ug/ml
[14] = target: human transferrin receptor expressed by nonhematopoietic cancer cells (human) (UniProt P02786); test: FACS, H520 cells, 5 ug
[15] = target: human transferrin receptor expressed by nonhematopoietic cancer cells (human) (UniProt P02786); test: FACS, Panc02.03B cells, 5 ug
[16] = target: human transferrin receptor expressed by normal human cells (RBC, PMN, lymphocytes, monocytes, platelets, HUVEC) (human) (UniProt P02786); test: FACS, RBC, donor D102
[17] = target: human transferrin receptor expressed by normal human cells (RBC, PMN, lymphocytes, monocytes, platelets, HUVEC) (human) (UniProt P02786); test: FACS, lymphocytes, donor D014
[18] = target: human transferrin receptor expressed by normal human cells (RBC, PMN, lymphocytes, monocytes, platelets, HUVEC) (human) (UniProt P02786); test: FACS, RBC, donor D014
[19] = target: human transferrin receptor expressed by nonhematopoietic cancer cells (human) (UniProt P02786); test: FACS, A549 cells, 5 ug
[20] = target: human transferrin receptor expressed by normal human cells (RBC, PMN, lymphocytes, monocytes, platelets, HUVEC) (human) (UniProt P02786); test: FACS, platelets, donor D014
[21] = target: human transferrin receptor expressed by nonhematopoietic cancer cells (human) (UniProt P02786); test: FACS, SU.86.86 cells, 5 ug
[22] = target: human transferrin receptor expressed by nonhematopoietic cancer cells (human) (UniProt P02786); test: FACS, H727 cells, 5 ug
[23] = target: human transferrin receptor expressed by normal human cells (RBC, PMN, lymphocytes, monocytes, platelets, HUVEC) (human) (UniProt P02786); test: FACS, platelets, donor D005
[24] = target: human transferrin receptor expressed by nonhematopoietic cancer cells (human) (UniProt P02786); test: FACS, COLO205 cells, 5 ug
[25] = target: human transferrin receptor expressed by nonhematopoietic cancer cells (human) (UniProt P02786); test: FACS, PC3 cells, 5 ug
[26] = target: human transferrin receptor expressed by nonhematopoietic cancer cells (human) (UniProt P02786); test: FACS, H358 cells, 5 ug
[27] = target: human transferrin receptor expressed by nonhematopoietic cancer cells (human) (UniProt P02786); test: FACS, HEC-1-A cells, 5 ug
[28] = target: human transferrin receptor expressed by nonhematopoietic cancer cells (human) (UniProt P02786); test: FACS, Hep G2 cells, 5 ug
[29] = target: human transferrin receptor expressed by normal human cells (RBC, PMN, lymphocytes, monocytes, platelets, HUVEC) (human) (UniProt P02786); test: FACS, lymphocytes, donor D005
[30] = target: human transferrin receptor expressed by normal human cells (RBC, PMN, lymphocytes, monocytes, platelets, HUVEC) (human) (UniProt P02786); test: FACS, monocytes, donor D014
[31] = target: human transferrin receptor expressed by nonhematopoietic cancer cells (human) (UniProt P02786); test: FACS, OMC-3 cells, 5 ug
[32] = target: human transferrin receptor expressed by normal human cells (RBC, PMN, lymphocytes, monocytes, platelets, HUVEC) (human) (UniProt P02786); test: FACS, PMN, donor D014
[33] = target: human transferrin receptor expressed by nonhematopoietic cancer cells (human) (UniProt P02786); test: FACS, Panc-1 cells, 5 ug
[34] = target: human transferrin receptor expressed by normal human cells (RBC, PMN, lymphocytes, monocytes, platelets, HUVEC) (human) (UniProt P02786); test: FACS, PMN, donor D016
[35] = target: human transferrin receptor expressed by normal human cells (RBC, PMN, lymphocytes, monocytes, platelets, HUVEC) (human) (UniProt P02786); test: FACS, PMN, donor D102
[36] = target: human transferrin receptor expressed by normal human cells (RBC, PMN, lymphocytes, monocytes, platelets, HUVEC) (human) (UniProt P02786); test: FACS, lymphocytes, donor D016
[37] = target: human transferrin receptor expressed by normal human cells (RBC, PMN, lymphocytes, monocytes, platelets, HUVEC) (human) (UniProt P02786); test: FACS, platelets, donor D102
[38] = target: human transferrin receptor expressed by normal human cells (RBC, PMN, lymphocytes, monocytes, platelets, HUVEC) (human) (UniProt P02786); test: FACS, PMN, donor D005
[39] = target: human transferrin receptor expressed by nonhematopoietic cancer cells (human) (UniProt P02786); test: FACS, 22Rv1 cells, 5 ug
[40] = target: human transferrin receptor expressed by normal human cells (RBC, PMN, lymphocytes, monocytes, platelets, HUVEC) (human) (UniProt P02786); test: FACS, monocytes, donor D102
[41] = target: human transferrin receptor expressed by nonhematopoietic cancer cells (human) (UniProt P02786); test: FACS, KLE cells, 5 ug
[42] = target: human transferrin receptor expressed by normal human cells (RBC, PMN, lymphocytes, monocytes, platelets, HUVEC) (human) (UniProt P02786); test: FACS, monocytes, donor D005
[43] = target: human transferrin receptor expressed by nonhematopoietic cancer cells (human) (UniProt P02786); test: FACS, SK-OV-3 cells, 5 ug
[44] = target: human transferrin receptor expressed by nonhematopoietic cancer cells (human) (UniProt P02786); test: FACS, Kato III cells, 5 ug
[45] = target: human transferrin receptor expressed by nonhematopoietic cancer cells (human) (UniProt P02786); test: FACS, WiDr cells, 5 ug
[46] = target: human transferrin receptor expressed by nonhematopoietic cancer cells (human) (UniProt P02786); test: FACS, Hep 3B2.1-7 cells, 5 ug
[47] = target: human transferrin receptor expressed by normal human cells (RBC, PMN, lymphocytes, monocytes, platelets, HUVEC) (human) (UniProt P02786); test: FACS, RBC, donor D016
[48] = target: human transferrin receptor expressed by nonhematopoietic cancer cells (human) (UniProt P02786); test: FACS, MDA-MB-453 cells, 5 ug
[49] = target: human transferrin receptor expressed by Jurkat cells (human) (UniProt P02786); test: FACS, Jurkat cells, 1 ug
human transferrin receptor expressed by Jurkat cells (human), sequence (P02786 whole entry G142S): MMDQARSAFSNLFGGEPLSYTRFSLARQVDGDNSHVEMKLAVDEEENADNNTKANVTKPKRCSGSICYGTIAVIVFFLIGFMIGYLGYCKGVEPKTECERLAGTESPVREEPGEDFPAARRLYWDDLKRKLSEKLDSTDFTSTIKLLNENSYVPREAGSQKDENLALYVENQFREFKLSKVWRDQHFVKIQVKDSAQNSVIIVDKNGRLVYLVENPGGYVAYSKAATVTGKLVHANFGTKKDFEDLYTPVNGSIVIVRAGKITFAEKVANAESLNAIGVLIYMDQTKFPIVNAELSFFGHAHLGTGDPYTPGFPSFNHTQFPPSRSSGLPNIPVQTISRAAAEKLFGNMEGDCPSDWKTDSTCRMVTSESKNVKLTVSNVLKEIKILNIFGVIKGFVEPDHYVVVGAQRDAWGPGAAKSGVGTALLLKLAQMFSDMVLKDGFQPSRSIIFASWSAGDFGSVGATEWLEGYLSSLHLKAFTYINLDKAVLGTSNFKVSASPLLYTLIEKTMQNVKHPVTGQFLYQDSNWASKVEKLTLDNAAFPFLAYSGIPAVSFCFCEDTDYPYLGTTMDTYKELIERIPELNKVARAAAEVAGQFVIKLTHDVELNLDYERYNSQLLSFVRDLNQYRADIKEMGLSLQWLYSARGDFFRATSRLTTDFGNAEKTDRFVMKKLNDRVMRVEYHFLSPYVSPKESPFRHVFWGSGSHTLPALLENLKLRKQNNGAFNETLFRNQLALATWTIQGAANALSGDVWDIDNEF

human CD41a on platelets (human), sequence (P08514 32-1039): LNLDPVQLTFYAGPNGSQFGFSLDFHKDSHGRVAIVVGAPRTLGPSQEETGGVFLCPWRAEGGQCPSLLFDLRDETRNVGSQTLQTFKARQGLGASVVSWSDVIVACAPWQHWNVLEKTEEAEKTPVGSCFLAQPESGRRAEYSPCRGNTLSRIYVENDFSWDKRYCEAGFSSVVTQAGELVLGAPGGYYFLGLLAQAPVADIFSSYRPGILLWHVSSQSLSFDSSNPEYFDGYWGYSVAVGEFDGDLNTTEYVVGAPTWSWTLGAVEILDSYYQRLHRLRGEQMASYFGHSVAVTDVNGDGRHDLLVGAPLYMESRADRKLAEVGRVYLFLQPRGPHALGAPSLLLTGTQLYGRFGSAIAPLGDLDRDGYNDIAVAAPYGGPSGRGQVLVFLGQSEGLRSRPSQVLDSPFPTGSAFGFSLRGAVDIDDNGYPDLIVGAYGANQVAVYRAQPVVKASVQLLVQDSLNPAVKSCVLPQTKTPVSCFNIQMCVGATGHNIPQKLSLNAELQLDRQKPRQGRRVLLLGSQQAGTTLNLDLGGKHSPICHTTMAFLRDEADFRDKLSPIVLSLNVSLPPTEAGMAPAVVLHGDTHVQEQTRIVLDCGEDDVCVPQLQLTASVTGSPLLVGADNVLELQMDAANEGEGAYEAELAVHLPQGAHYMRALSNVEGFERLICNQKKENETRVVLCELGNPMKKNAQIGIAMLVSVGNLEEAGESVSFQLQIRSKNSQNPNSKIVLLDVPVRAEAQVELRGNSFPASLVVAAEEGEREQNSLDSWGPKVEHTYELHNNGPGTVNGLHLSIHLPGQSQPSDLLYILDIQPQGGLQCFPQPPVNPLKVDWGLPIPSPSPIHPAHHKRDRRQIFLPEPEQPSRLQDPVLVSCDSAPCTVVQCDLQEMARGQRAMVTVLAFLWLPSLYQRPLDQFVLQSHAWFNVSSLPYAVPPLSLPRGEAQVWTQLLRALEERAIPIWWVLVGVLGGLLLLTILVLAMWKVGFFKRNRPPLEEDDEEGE
human transferrin receptor expressed by nonhematopoietic cancer cells (human), sequence (P02786 whole entry G142S): as the sequence (P02786 whole entry G142S) above
human transferrin receptor expressed by normal human cells (RBC, PMN, lymphocytes, monocytes, platelets, HUVEC) (human), sequence (P02786 whole entry G142S): as above

% positive cell binding [1]: 95%
% positive cell binding [2]: 78%
% positive cell binding [3]: 97%
% positive cell binding [4]: 79%
Substance: PE-conjugated anti-human CD41a (Southern Biotech Cat. No. 9391-09) (antibody)

% positive cell binding [5]: < 1%
MFI [6]: 5 MFI
MFI [7]: 33 MFI
% positive cell binding [8]: 1%
% positive cell binding [9]: 3%
MFI [10]: 5 MFI
MFI [11]: 4 MFI
% positive cell binding [12]: < 1%
% positive cell binding [13]: 1%
MFI [14]: 5 MFI
MFI [15]: 5 MFI
% positive cell binding [16]: < 1%
% positive cell binding [17]: 1%
% positive cell binding [18]: < 1%
MFI [19]: 8 MFI
% positive cell binding [20]: < 1%
MFI [21]: 6 MFI
MFI [22]: 9 MFI
% positive cell binding [23]: < 1%
MFI [24]: 3 MFI
MFI [25]: 3 MFI
MFI [26]: 4 MFI
MFI [27]: 13 MFI
MFI [28]: 4 MFI
% positive cell binding [29]: 4%
% positive cell binding [30]: < 1%
MFI [31]: 16 MFI
% positive cell binding [32]: < 1%
MFI [33]: 6 MFI
% positive cell binding [34]: < 1%
% positive cell binding [35]: < 1%
% positive cell binding [36]: 1%
% positive cell binding [37]: < 1%
% positive cell binding [38]: < 1%
MFI [39]: 7 MFI
% positive cell binding [40]: 2%
MFI [41]: 10 MFI
% positive cell binding [42]: 3%
MFI [43]: 5 MFI
MFI [44]: 7 MFI
MFI [45]: 5 MFI
MFI [46]: 5 MFI
% positive cell binding [47]: < 1%
MFI [48]: 4 MFI
Substance: isotype control mouse IgM, kappa (BD Pharmingen Cat. No. 557275) (antibody)

% of gated cells [49]: 100%
Substance: anti-human transferrin receptor antibody MEM189 (Abcam Cat. No. ab1086)
